Reference: the supplement of paper PMC7125110
± gives the standard error. For some of these results: This sample holds only a part of the variants without activity.

B1: glmS ribozyme (parent)
chain: AUAAAAGCGCCAGAACUACAGAAAUGUAGUUGACGAGGAGGAGGUUUAUCGAAUUUUCGGCGGAUGCCUCCAAA

Experiments:
Conditions in all cases: with glucosamine-6-phosphate
glucosamine-6-phosphate [1] = variants of: B1; test: kcat; higher = faster cleavage; RNA array
Summary of the method: (§1)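 Using a hybridised Cy3 probe at 37 °C, barcoded ribozyme variants transcribed in situ by E. coli RNA polymerase on sequenced MiSeq chips were monitored across tiles imaged over ~14 h. The flow contained glucosamine-6-phosphate from 40 μM to 10 mM in HEPES/KCl/Mg(OAc)2 buffer. Signals were normalised to baseline and to non-cleaving reference variants before per-tile medians were fit to one- or two-exponential decays to yield kobs. Weighted Michaelis–Menten fits across concentrations gave kcat and KM.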

glucosamine-6-phosphate [2] = variants of: B1; test: self-cleavage kobs at 160 uM GlcN6P; higher = faster cleavage; RNA array
Summary of the method: as §1

glucosamine-6-phosphate [3] = variants of: B1; test: self-cleavage kobs at 640 uM GlcN6P; higher = faster cleavage; RNA array
Summary of the method: as §1

glucosamine-6-phosphate [4] = variants of: B1; test: self-cleavage kobs at 2500 uM GlcN6P; higher = faster cleavage; RNA array
Summary of the method: as §1

glucosamine-6-phosphate [5] = variants of: B1; test: self-cleavage kobs at 10000 uM GlcN6P; higher = faster cleavage; RNA array
Summary of the method: as §1

glucosamine-6-phosphate [6] = variants of: B1; test: KM; higher = weaker cofactor use; RNA array
Summary of the method: as §1

glucosamine-6-phosphate [7] = variants of: B1; test: self-cleavage kobs at 40 uM GlcN6P; higher = faster cleavage; RNA array
Summary of the method: as §1

Variant	kcat (glucosamine-6-phosphate [1]) [s⁻¹]	self-cleavage kobs at 160 uM GlcN6P (glucosamine-6-phosphate [2]) [s⁻¹]	self-cleavage kobs at 640 uM GlcN6P (glucosamine-6-phosphate [3]) [s⁻¹]	self-cleavage kobs at 2500 uM GlcN6P (glucosamine-6-phosphate [4]) [s⁻¹]	self-cleavage kobs at 10000 uM GlcN6P (glucosamine-6-phosphate [5]) [s⁻¹]	KM (glucosamine-6-phosphate [6]) [µM]	self-cleavage kobs at 40 uM GlcN6P (glucosamine-6-phosphate [7]) [s⁻¹]
G29A U46G	0.00124 ± 0.00055	5.62e-05 ± 1.3e-05	0.000243 ± 4.1e-05	0.000425 ± 7.7e-05	0.00128 ± 0.00027		
G29U A39G	0.0173 ± 0.0026	0.000723 ± 0.00021	0.00233 ± 0.0004	0.0072 ± 0.0012	0.0129 ± 0.0028	3640 ± 720	0.000218 ± 4.4e-05
C16U C61A	1.08e-05 ± 2.3e-06						
G29U G32U	0.00125 ± 0.00041		0.00011 ± 1.5e-05	0.000243 ± 3e-05	0.000702 ± 7.1e-05	8560 ± 4000	
G29U G32C	0.000123 ± 3.9e-06			5.78e-05 ± 8.5e-06	9.71e-05 ± 8.4e-06	2730 ± 250	< 1e-05
G29U A53G	0.00448 ± 0.0019	0.000262 ± 5.4e-05	0.000805 ± 0.00012	0.0021 ± 0.00029	0.00417 ± 0.00059		0.000165 ± 2.5e-05
U30A A53U	0.00525 ± 0.00098	0.00035 ± 7.7e-05	0.00135 ± 0.00021	0.00272 ± 0.00042	0.00523 ± 0.001	1860 ± 480	0.000128 ± 1.8e-05
U30A A53G	0.00645 ± 0.0027	0.000553 ± 0.00023	0.00196 ± 0.00055	0.00301 ± 0.00096	0.00929 ± 0.002		0.000256 ± 5.1e-05
G29C A39C	0.000582 ± 8.5e-05	6.14e-05 ± 2.9e-05	7.25e-05 ± 1.1e-05	0.000212 ± 3e-05	0.000406 ± 4.2e-05	4360 ± 1100	
U30A U65C	0.000105 ± 8e-06			4.68e-05 ± 1.5e-05	8.23e-05 ± 1.6e-05	2860 ± 590	
U30A U65G	0.00214 ± 0.00022	6.8e-05 ± 2.4e-05	0.000275 ± 8.9e-05	0.000614 ± 0.00016	0.00141 ± 0.00016	5250 ± 1000	
G29U C70G	7.29e-05 ± 6.3e-06		5.02e-05 ± 8.2e-06	6.59e-05 ± 7.1e-06	6.77e-05 ± 7.7e-06	354 ± 150	
G29A A39U A42U	0.000919 ± 0.00015	4.77e-05 ± 2e-05	0.000148 ± 3.3e-05	0.000488 ± 0.00012	0.000685 ± 0.00014	3000 ± 790	
U30A U55G	0.00534 ± 0.002	0.000286 ± 5.5e-05	0.00138 ± 0.00022	0.00239 ± 0.00033	0.00586 ± 0.00095		0.000142 ± 2.1e-05
G29C U65G	0.00083 ± 0.00013		0.000115 ± 2.7e-05	0.000279 ± 7.3e-05	0.000591 ± 0.00015	4400 ± 1000	
U30A A33U	5.67e-05 ± 3.2e-06	< 1e-05			4.04e-05 ± 8.7e-06	4010 ± 660	< 1e-05
U30C U54A	0.000514 ± 7.7e-05		8.25e-05 ± 2.1e-05	0.000182 ± 5.3e-05	0.000378 ± 5.6e-05	3790 ± 1100	
U30G A33C	4.15e-05 ± 6e-07				3.4e-05 ± 8.1e-06	2230 ± 140	
U30A C67A	0.00161 ± 0.00066	0.00014 ± 3.7e-05	0.000231 ± 4.7e-05	0.00102 ± 0.00018	0.00131 ± 0.0002		4.92e-05 ± 9.2e-06
G29C U31C	0.000387 ± 3.9e-05		5.78e-05 ± 1.8e-05	0.000184 ± 3.4e-05	0.000284 ± 4.2e-05	3280 ± 690	
A20C	0.0144 ± 0.0036	0.00529 ± 0.0011	0.00992 ± 0.003	0.0111 ± 0.0039		327 ± 110	0.00153 ± 0.00021
C16U C70A	0.000203 ± 1.9e-05	7.15e-05 ± 9.6e-06	0.000148 ± 2.1e-05	0.000204 ± 2.2e-05	0.000177 ± 2e-05	296 ± 79	
U30A U45A	0.00916 ± 0.0024	0.000872 ± 0.00018	0.00285 ± 0.00065	0.00515 ± 0.001	0.0107 ± 0.0021	1290 ± 500	0.000369 ± 6.4e-05
C19A	0.0165 ± 0.0045	0.00456 ± 0.00078	0.00758 ± 0.00099	0.011 ± 0.0021	0.0275 ± 0.0046	610 ± 220	0.00101 ± 8.1e-05
U30A G38A	< 1e-05				< 1e-05		< 1e-05
G29A U54G	0.00345 ± 0.00074	0.000165 ± 2.7e-05	0.000767 ± 0.00012	0.00138 ± 0.00023	0.00293 ± 0.00042	2790 ± 830	5.97e-05 ± 1.1e-05
U30A U69A	5.09e-05 ± 2.2e-05	5.73e-05 ± 2.4e-05		9.65e-05 ± 1.8e-05	3.22e-05 ± 1.1e-05		
U30G A39C	0.00157 ± 0.00013	0.000114 ± 1.6e-05	0.000396 ± 3.6e-05	0.000787 ± 7.3e-05	0.00139 ± 0.00011	2010 ± 270	3.28e-05 ± 5.7e-06
